Measured values reported in patent US10272233B2, “Method to fabricate polymeric microneedles” (National University of Singapore, priority 2012, dated 2019).

How the values were obtained:
[1] = In vitro release of rhodamine B from microneedle arrays in 1×PBS at 37° C.; assay type: physicochemical; settings: within the first hour, rhodamine B encapsulated in PEGDA microneedles and backing layer
Protocol: Encapsulation of a Model Drug: Imaging and In Vitro Release Rhodamine B was dissolved in the prepolymer solution at a concentration of 0.09, 0.17 and 0.44 weight %, respectively. The drug-laden microneedle samples were imaged using a fluorescence stereomicroscope (Nikon, Japan). The amount of drug encapsulated in the microneedles was calculated from the percent weight of the drugs in the prepolymer solution and the weight of fabricated microneedles. Selective incorporation of rhodamine B in the backing layer or microneedle shafts was made possible by using the prepolymer solutions containing the model drug to fabricate the backing layer or microneedles respectively. In vitro release of rhodamine B was tested by suspending fabricated microneedle arrays in 15 ml of 1×PBS, at 37° C. and sampled at regular intervals. At each sampling point, the whole 15 ml of release medium was withdrawn and replaced with 15 ml of fresh 1×PBS. The samples were stored at 4° C. before analysis. The amount released was quantified by measuring rhodamine B fluorescence at excitation and emission wavelengths of 554 nm and 586 nm, respectively, with a Tecan 2000 microplate reader (Tecan, Austria). In Vitro Permeation Through Rat Skin

[2] = cited from earlier work
[3] = Fluorescence spectroscopy, tertiary structure stability of BSA in microneedles; assay type: physicochemical; settings: excitation 280 nm
Protocol: In order to evaluate the tertiary structural changes in the protein conformation, fluorescence spectra was analyzed for protein samples. […] The emission spectra were studied in the range of 300-400 nm at a fixed excitation wavelength of 280 nm using a Hitachi F-7000 fluorescence spectrophotometer. The fluorescence intensities were plotted against wavelength as an average of triplicate measurements.

[4] = Collagen permeation through microneedle pretreated rat skin (confocal fluorescence); assay type: in vitro ADME
Protocol: Microneedles of the longest range of length were inserted into excised rat abdominal skin. Hair and fat were removed as mentioned previously. The skin was fully stretched on a thin layer of PDMS to mimic tissue-like mechanical support. A force of 10 N was applied using the digital force gauge (Dillon GL, USA) for 2 minutes. Bovine skin collagen type 1, FITC conjugate (MW=300 kDa) of concentrations 0.025, 0.050 and 0.075% w/v was obtained by diluting the stock collagen solution (0.1% w/v) withappropriate amount of 0.1 M Tris-HCl buffer (pH 7.8) containing 0.4 M NaCl, 10 mM CaCl2 and 0.25 M glucose. NaCl and CaCl2 aid in stabilizing the collagen molecules and glucose is added to prevent gelation of the collagen fibers. Each collagen concentration was applied to separate skin samples at the area of insertion. The time of contact between the collagen solution and the skin was kept constant at 4 hours at room temperature, after which excess collagen on the skin surface was removed using Kimwipe (Kimberly-Clark, Roswell, Ga.). The degree of permeation of collagen through the skin was quantified by using the A-1R confocal microscope (Nikon, Japan) to observe the fluorescence intensity of collagen type 1, FITC conjugate at excitation and emission wavelengths of 490 nm and 520 nm respectively. […]

[5] = Circular dichroism, secondary structure stability of BSA in microneedles; assay type: physicochemical; settings: far UV CD 260-200 nm; microneedle release samples stored 3 days at 37° C.; degraded control: 75° C. or pH 2
Protocol: Circular dichroism (CD) spectroscopy was performed on the samples to evaluate the secondary structural characteristics of bovine serum albumin in the fabricated microneedles. The analysis was performed in a Jasco J-810 spectropolarimeter (Jasco, Tokyo, Japan) with a 1 mm light path quartz cell (Helima, Müllheim, Germany). Data was acquired at a bandwidth of 0.1 nm with a scan speed of 50 nm/min and a response time of 8 seconds. […] The microneedle release samples were first filtered using micro-centrifugal concentrators, (30 kDa cut-off) (Vivaspin 20, GE, UK) to separate the protein from polymer. Average value from triplicate measurements was used to plot the curve of molar ellipticity to wavelength. Molar ellipticity was calculated using the following equation: […]
The percentage of α-helix was calculated from the following equation
[formula] Tertiary Structure Stability

Compound: CCN(CC)c1ccc2c(-c3ccccc3C(=O)O)c3ccc(=[N+](CC)CC)cc-3oc2c1.[Cl-] [rhodamine B, Rhodamine B]
- encapsulated drug released [1]: ~30%
- log P [2]: 2.43

Compound: standard solution of BSA: standard BSA solution 0.026 mg/ml in purified water
- emission maximum ([3]; standard BSA solution, scanned 300-400 nm): 338 nm

Compound: O=C(O)CN(CC(=O)O)Cc1cc2c(cc1O)Oc1cc(O)c(CN(CC(=O)O)CC(=O)O)cc1C21OC(=O)c2ccccc21 [calcein]
- log P [2]: −5.02

Compound: bovine collagen type 1, FITC conjugate: model macromolecule, MW=300 kDa, applied to microneedle pretreated skin
- diffusion of collagen molecules after treatment of skin with microneedles [4]: greatly enhanced

Compound: degraded BSA: BSA degraded by heating at 75° C. and under acidic conditions of pH 2
- secondary structure / ellipticity by circular dichroism [5]: significantly lower ellipticity values
- fluorescence ([3]; BSA denatured using heat or acid, emission 300-400 nm): did not show any fluorescence
